This note sets out measurements from paper doi:10.1101/2023.11.20.567910.

Assay [1] has as its target HIV-1AD8 Env variants (N332 substituted) tested against V3-glycan bnAbs.
The target is the same in assay [2]. This is another data set of the same source.

Bounds are passed on as bounds.

As for PGT121 (antibody), the IC50 of neutralisation: entry of Env-pseudotyped virus into Cf2-Th/CD4+CCR5+ cells (luciferase) in assay [1] was under 1 µg/mL. For the substance 2G12 (antibody), the IC50 of neutralisation: entry of Env-pseudotyped virus into Cf2-Th/CD4+CCR5+ cells (luciferase); told of most variants here, of all AD8 variants in p-0007 in assay [2] was over 10 µg/mL.

On to 10–1074 (antibody), for which the IC50 of neutralisation: entry of Env-pseudotyped virus into Cf2-Th/CD4+CCR5+ cells (luciferase); told of most variants in assay [2] was over 10 µg/mL.
